The labels stand for the following.
B1: Recombinant human factor H-related protein 1 (natural protein, UniProt Q03591 19-330, looked up)
chain: EATFCDFPKINHGILYDEEKYKPFSQVPTGEVFYYSCEYNFVSPSKSFWTRITCTEEGWSPTPKCLRLCFFPFVENGHSESSGQTHLEGDTVQIICNTGYRLQNNENNISCVERGWSTPPKCRSTDTSCVNPPTVQNAHILSRQMSKYPSGERVRYECRSPYEMFGDEEVMCLNGNWTEPPQCKDSTGKCGPPPPIDNGDITSFPLSVYAPASSVEYQCQNLYQLEGNKRITCRNGQWSEPPKCLHPCVISREIMENYNIALRWTAKQKLYLRTGESAEFVCKRGYRLSSRSHTLRTTCWDGKLEYPTCAKR
notes: complement factor H-related protein 1 (FHR1), human, recombinant; Commercial recombinant protein; also called FHR1; source: bought: Novoprotein via Gentaur (recombinant)
B2: Human vitronectin (natural protein, UniProt P04004 20-478, looked up)
chain: DQESCKGRCTEGFNVDKKCQCDELCSYYQSCCTDYTAECKPQVTRGDVFTMPEDEYTVYDDGEEKNNATVHEQVGGPSLTSDLQAQSKGNPEQTPVLKPEEEAPAPEVGASKPEGIDSRPETLHPGRPQPPAEEELCSGKPFDAFTDLKNGSLFAFRGQYCYELDEKAVRPGYPKLIRDVWGIEGPIDAAFTRINCQGKTYLFKGSQYWRFEDGVLDPDYPRNISDGFDGIPDNVDAALALPAHSYSGRERVYFFKGKQYWEYQFQHQPSQEECEGSSLSAVFEHFAMMQRDSWEDIFELLFWGRTSAGTRQPQFISRDWHGVPGQVDAAMAGRIYISGMAPRPSLAKKQRFRHRNRKGYRSQRGHSRGRNQNSRRPSRATWLSLFSSEESNLGANNYDDYRMDWLVPATCEPIQSVFFFSGDKYYRVNLRTRRVDTVDPPYPRSIAQYWLGCPAPGHL
notes: vitronectin, human; source: bought: Sigma-Aldrich
B3: Recombinant human factor H-related protein 5 (natural protein, UniProt Q9BXR6 19-569, looked up)
chain: EGTLCDFPKIHHGFLYDEEDYNPFSQVPTGEVFYYSCEYNFVSPSKSFWTRITCTEEGWSPTPKCLRMCSFPFVKNGHSESSGLIHLEGDTVQIICNTGYSLQNNEKNISCVERGWSTPPICSFTKGECHVPILEANVDAQPKKESYKVGDVLKFSCRKNLIRVGSDSVQCYQFGWSPNFPTCKGQVRSCGPPPQLSNGEVKEIRKEEYGHNEVVEYDCNPNFIINGPKKIQCVDGEWTTLPTCVEQVKTCGYIPELEYGYVQPSVPPYQHGVSVEVNCRNEYAMIGNNMITCINGIWTELPMCVATHQLKRCKIAGVNIKTLLKLSGKEFNHNSRIRYRCSDIFRYRHSVCINGKWNPEVDCTEKREQFCPPPPQIPNAQNMTTTVNYQDGEKVAVLCKENYLLPEAKEIVCKDGRWQSLPRCVESTAYCGPPPSINNGDTTSFPLSVYPPGSTVTYRCQSFYKLQGSVTVTCRNKQWSEPPRCLDPCVVSEENMNKNNIQLKWRNDGKLYAKTGDAVEFQCKFPHKAMISSPPFRAICQEGKFEYPICE
notes: complement factor H-related protein 5 (FHR5), human, recombinant; called 'full-length FHR5' in the discussion; Commercial recombinant protein; The discussion speaks of 'the dimerized full-length protein'; also called FHR5; full-length FHR5; source: bought: Novoprotein via Gentaur (recombinant)

Holding throughout (details): both partners purified
Test [1] deals with B2. The test can be described thus: peptide or protein array; ECM proteins (0.5 mg/ml) printed on nitrocellulose-covered slides in triplicates, blocked with 4% BSA; incubated with FHR1 (5, 25, 50 µg/ml) or FHR5 (0.5, 5, 20 µg/ml); detected with goat anti-human FH or anti-FHR5 and Alexa-647 anti-goat IgG; signal above gelatin taken as binding.
For test [2], the target named is T1, Purified human factor H (human, UniProt P08603 19-1231).
T1 construct: complement factor H, human, 155-kDa serum glycoprotein, 20 CCP domains; also called FH; source: bought: Merck (purified human)
Description: peptide or protein array; competition: printed ECM proteins incubated with 25 µg/ml FH with or without FHR1 (5, 25, 50 µg/ml) or FHR5 (0.5, 5, 20 µg/ml); bound FH detected with mAb A254 that does not cross-react with FHR1 and FHR5.

Test [3] deals with B3. Description: peptide or protein array; ECM proteins (0.5 mg/ml) printed on nitrocellulose-covered slides in triplicates, blocked with 4% BSA; incubated with FHR1 (5, 25, 50 µg/ml) or FHR5 (0.5, 5, 20 µg/ml); detected with goat anti-human FH or anti-FHR5 and Alexa-647 anti-goat IgG; signal above gelatin taken as binding.
The target of test [4] is T2, C3(H2O) (human, UniProt P01024 23-667; P01024 672-1663).
T2 construct: complement C3 beta chain, human; complement C3 alpha chain, human; Same chains as C3; source: generated from purified human C3 (Merck) with ten freeze/thaw cycles
Description: ELISA; 10 µg/ml FHR5, CCPs 1-4, CCPs 3-7, CCPs 8-9 and alpha-1-antitrypsin immobilised, incubated with 5 µg/ml C3, C3(H2O) and C3b; detected with anti-human C3. (In general: An ELISA detects its analyte on a solid surface through an enzyme-linked reagent.)

The target in test [5] is T3, Purified human C3b (human, UniProt P01024 23-667; P01024 749-1663).
T3 construct: complement C3 beta chain, human; complement C3b alpha' chain, human; also called soluble C3b; fluid-phase C3b; source: bought: Merck (purified human)
The test can be described thus: ELISA; FHR5, CCPs 1-4, CCPs 3-7, CCPs 8-9 and HSA immobilised at 5 µg/ml, blocked with 4% BSA; 20 µg/ml C3b, iC3b, C3c or 10 µg/ml C3d added; detected with anti-human C3 or anti-human C3d.

T3 sequence (P01024 23-667, chain 1 of 2): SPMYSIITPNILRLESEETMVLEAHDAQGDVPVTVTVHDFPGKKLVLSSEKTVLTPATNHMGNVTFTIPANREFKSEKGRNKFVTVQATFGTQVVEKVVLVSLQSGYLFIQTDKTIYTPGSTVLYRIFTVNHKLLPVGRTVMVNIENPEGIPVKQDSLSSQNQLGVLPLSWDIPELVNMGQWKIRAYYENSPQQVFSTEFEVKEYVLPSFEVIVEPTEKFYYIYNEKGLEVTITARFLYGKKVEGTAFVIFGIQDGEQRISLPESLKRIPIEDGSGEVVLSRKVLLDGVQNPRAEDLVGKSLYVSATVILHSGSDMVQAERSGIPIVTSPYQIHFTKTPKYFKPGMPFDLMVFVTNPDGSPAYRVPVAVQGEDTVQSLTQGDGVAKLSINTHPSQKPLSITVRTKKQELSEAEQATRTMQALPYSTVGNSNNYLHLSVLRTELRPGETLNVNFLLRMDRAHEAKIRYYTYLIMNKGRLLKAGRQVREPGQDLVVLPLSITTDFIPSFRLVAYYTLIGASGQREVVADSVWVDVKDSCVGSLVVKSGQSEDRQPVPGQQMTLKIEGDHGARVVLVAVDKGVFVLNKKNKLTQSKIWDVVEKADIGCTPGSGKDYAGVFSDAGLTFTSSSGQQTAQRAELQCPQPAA
T3 sequence (P01024 749-1663, chain 2 of 2): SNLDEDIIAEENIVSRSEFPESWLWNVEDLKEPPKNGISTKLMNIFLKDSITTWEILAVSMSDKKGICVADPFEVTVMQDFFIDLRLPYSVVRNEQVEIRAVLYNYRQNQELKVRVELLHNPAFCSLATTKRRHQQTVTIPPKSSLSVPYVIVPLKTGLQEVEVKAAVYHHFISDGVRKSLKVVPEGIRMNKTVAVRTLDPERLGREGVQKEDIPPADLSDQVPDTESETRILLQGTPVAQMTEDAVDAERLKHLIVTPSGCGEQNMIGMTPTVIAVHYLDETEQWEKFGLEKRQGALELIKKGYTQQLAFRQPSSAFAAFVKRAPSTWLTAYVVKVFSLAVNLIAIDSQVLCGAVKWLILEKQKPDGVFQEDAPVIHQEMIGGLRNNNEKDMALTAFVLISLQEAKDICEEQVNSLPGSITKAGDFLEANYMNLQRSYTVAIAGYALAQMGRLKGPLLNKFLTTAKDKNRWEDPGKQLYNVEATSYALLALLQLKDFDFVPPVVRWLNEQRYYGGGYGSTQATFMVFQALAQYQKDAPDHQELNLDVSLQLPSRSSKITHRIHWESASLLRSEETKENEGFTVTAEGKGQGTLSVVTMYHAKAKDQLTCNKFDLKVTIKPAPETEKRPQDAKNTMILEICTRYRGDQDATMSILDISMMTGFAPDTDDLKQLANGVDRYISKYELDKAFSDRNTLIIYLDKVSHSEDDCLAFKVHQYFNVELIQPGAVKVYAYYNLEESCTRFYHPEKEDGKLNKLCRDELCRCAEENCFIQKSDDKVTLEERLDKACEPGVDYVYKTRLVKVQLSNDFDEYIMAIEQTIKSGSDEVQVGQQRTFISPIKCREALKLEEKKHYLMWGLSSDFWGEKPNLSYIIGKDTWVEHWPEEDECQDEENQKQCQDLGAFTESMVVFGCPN
T2 sequence (P01024 23-667, chain 1 of 2): as the sequence (P01024 23-667, chain 1 of 2) above
T2 sequence (P01024 672-1663, chain 2 of 2): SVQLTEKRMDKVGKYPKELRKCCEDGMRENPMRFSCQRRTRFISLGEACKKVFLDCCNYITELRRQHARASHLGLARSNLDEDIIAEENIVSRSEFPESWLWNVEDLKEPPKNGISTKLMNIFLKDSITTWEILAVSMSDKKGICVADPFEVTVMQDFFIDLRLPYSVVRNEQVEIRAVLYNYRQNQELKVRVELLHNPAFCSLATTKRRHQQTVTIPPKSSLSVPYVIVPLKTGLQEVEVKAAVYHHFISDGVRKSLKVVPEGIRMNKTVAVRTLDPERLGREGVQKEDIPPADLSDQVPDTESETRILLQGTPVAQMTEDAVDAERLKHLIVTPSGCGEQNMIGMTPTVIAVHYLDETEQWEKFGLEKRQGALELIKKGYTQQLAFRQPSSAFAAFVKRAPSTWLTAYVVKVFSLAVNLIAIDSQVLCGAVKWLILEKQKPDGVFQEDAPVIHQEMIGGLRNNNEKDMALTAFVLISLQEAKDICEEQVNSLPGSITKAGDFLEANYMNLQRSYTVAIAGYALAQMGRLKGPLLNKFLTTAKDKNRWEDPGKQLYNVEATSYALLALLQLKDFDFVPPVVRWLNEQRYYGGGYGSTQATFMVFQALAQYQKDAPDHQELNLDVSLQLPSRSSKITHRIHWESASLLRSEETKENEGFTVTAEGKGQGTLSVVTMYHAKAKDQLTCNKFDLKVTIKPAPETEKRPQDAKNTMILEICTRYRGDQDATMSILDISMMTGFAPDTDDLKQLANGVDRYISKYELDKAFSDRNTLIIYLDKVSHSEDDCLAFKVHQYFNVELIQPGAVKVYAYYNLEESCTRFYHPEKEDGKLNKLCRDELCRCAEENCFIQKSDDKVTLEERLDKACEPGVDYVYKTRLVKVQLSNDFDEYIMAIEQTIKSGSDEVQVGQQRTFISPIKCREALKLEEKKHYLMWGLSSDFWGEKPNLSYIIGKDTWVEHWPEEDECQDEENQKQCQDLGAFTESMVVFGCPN

With B1, the binding result in test [1] is recorded as “binds”.
As for B2, the binding result in test [2] and in test [3] was “binds” throughout.
Regarding B3, the binding result in test [4] and in test [5] was “binds” each time.

The record behind these values is publication PMC8980529, “Complement Factor H-Related Proteins FHR1 and FHR5 Interact With Extracellular Matrix Ligands, Reduce Factor H Regulatory Activity and Enhance Complement Activation” (Frontiers in Immunology, 2022).
